From article PMC10710050, “HCMV-secreted glycoprotein gpUL4 inhibits TRAIL-mediated apoptosis and NK cell activation” (Proceedings of the National Academy of Sciences of the …, 2023) come the findings set out here.

The Kd is the concentration at which binding is half-saturated. By koff is commonly meant the rate constant with which the complex falls apart. In general, kon refers to the rate constant with which the complex forms.

This assay concerns the target T1, TRAIL (Recombinant Human TRAIL, BioLegend) (human, UniProt P50591 39-281).
T1 construct: TRAIL (TNFSF10), human, recombinant soluble protein from BioLegend; The catalogue number is printed for the ELISA; SPR names BioLegend only; also called TNFSF10; soluble TRAIL; source: bought: BioLegend (cat.no 752902)
In words: SPR; Biacore T100; gpUL4-V5 amine-coupled to a CM5 chip (5000RU), control surface soluble UL141 subtracted; TRAIL or TNFα flowed over (100 nM; kinetics from 3.125, 6.25, 12.5, 25 and 50 nM TRAIL, 1:1 binding fit); 10 mM HEPES, 150 mM NaCl, 0.005% TWEEN-20, pH 7.4. Particulars: both partners purified. (In general: SPR reads the build-up and loss of mass on a sensor chip optically.)

T1 sequence (P50591 39-281): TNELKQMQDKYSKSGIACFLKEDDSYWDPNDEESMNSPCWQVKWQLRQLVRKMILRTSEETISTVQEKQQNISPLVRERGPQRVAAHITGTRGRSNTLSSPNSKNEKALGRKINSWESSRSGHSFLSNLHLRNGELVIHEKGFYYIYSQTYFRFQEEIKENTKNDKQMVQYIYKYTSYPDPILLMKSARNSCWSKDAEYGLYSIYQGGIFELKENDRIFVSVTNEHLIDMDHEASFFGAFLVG

B1: gpUL4-V5 (HCMV strain Merlin UL4 gene product with C-terminal V5/avitag/6his epitope tag) (natural protein)
chain: FCIFVSCSISTTTAPVEWKSPDRQIPMNITCANYSGTVNGNVTFRGLQNKTEDFLHWLLGWGHKSICSFFPKLQGNKEQHYMYGITNLTYNCTYDRLTLLNLTTENSGKYYFKREDVNSTFYYSCYNLTVT
modifications: N-linked and O-linked glycosylation on the secreted form (eight consensus N-linked sites; positions not given)
notes: the secreted form from the supernatant was used; Secreted glycoprotein; The tag is V5/avitag/6his in this order at the C-terminus; also called UL4 protein; not shown: V5, C-terminal, kept
As to B1, the dissociation constant Kd is 234 pM, the koff was 0.0002 s⁻¹ and the on-rate constant (kon) worked out at 867000 M⁻¹ s⁻¹.
